# From US9333268B2, “Methods of treatment with arginine deiminase” (Polaris Group, priority 2012, dated 2016)
# Columns and labels:
# [1] = system: human pancreatic cancer cell line MIA-PaCa2; assay: Cell death by PI-FACS (sub-G1 DNA content) and Annexin V-PI flow cytometry; type: cell-based
# Description: (§1) The human pancreatic cancer cell line MIA-PaCa2 was treated in vitro and in vivo with pegylated arginine deiminase (ADI-PEG) alone or in the presence of ChQ. Cell death was measured by propidium iodide (PI)-FACS to determine sub-G1 DNA content, and apoptosis was evaluated by Annexin V-PI flow cytometry. Cleavage of caspase 3 was evaluated by western blots and ELISA. Autophagy was measured by evaluating the expression levels of LC3 and […] p62 (p62) by western blots and ELISA.
# (§2) In order to determine if ADI induces apoptosis and autophagy in a caspase dependent manner, cells were incubated with either ADI-PEG or a combination of ADI-PEG and ZVAD-fmk, a pan-caspase inhibitor.
# (§3) The levels of p62, LC3B-I, and LC3B-II were measured by western blot analysis in order to examine autophagic flux.
# In order to examine whether ChQ alters the amount of apoptotic or non-apoptotic cell death when used in combination with ADI, cells were incubated with ADI-PEG alone or a combination of ADI-PEG and ChQ.
# [2] = system: human pancreatic cancer cell line MIA-PaCa2; assay: Western blot/ELISA of caspase 3 cleavage, LC3 and p62; type: cell-based; conditions: 72 hours
# Description: as §1, §2, §3
molecule,measurement,setting,value
"ADI-PEG: ADI covalently modified with PEG (with or without a linking group) (protein, listed as Mycoplasma hominis, PEGylated) MSVFDSKFNGIHVYSEIGELETVLVHEPGREIDYITPARLDELLFSAILESHDARKEHQSFVKIMKDRGINVVELTDLVAETYDLASKAAKEEFIETFLEETVPVLTEANKEAVRAFLLSKPTHEMVEFMMSGITKYELGVESENELIVDPMPNLYFTRDPFASVGNGVTIHFMRYIVRRRETLFARFVFRNHPKLVKTPWYYDPAMKMSIEGGDVFIYNNETLVVGVSERTDLDTITLLAKNIKANKEVEFKRIVAINVPKWTNLMHLDTWLTMLDKNKFLYSPIANDVFKFWDYDLVNGGAEPQPQLNGLPLDKLLASIINKEPVLIPIGGAGATEMEIARETNFDGTNYLAIKPGLVIGYDRNEKTNAALKAAGITVLPFHGNQLSLGMGNARCMSMPLSRKDVKW",Annexin V depolarization,"[1]; 0.3 μg/mL, 72 hours, vs PBS",induced Annexin V depolarization
same,number of cells in sub-G0/G1,[1]; ADI-PEG alone,increased the number of cells in sub-G0/G1
same,LC3B conjugation with PE,[2]; dose dependent,LC3B conjugation with PE
same,caspase cleavage,[2]; dose dependent,induces caspase cleavage
same,apoptosis as measured by caspase 3 cleavage,"[2]; ADI-PEG 0.3 μg/mL, western blot",induction of apoptosis
